The target of assay [1] is T1, human SIRPα variant 1 (human, UniProt P78324 31-504).
T1 construct: full length ORF on transfected CHO-K1 or HEK293 cells; entry includes the signal peptide; also called hSIRPαV1; SIRPαV1
Nature of the assay: CELISA, CHO-K1 transfectants, point mutant study. How it is done:
To pinpoint the amino acids for interaction of hSIRPα.50A with the IgV domain, several point mutants of hSIRPαV1 were generated based on single amino acid differences between hSIRPαV1/V2 and hSIRPβ1. […] Amino acids in the hSIRPα IgV domain that are altered in hSIRPβ1 were mutated by using the QuikChange II Site-Directed Mutagenesis Kit (Stratagene) and the full length hSIRPαV1 sequence (SEQ ID NO: 33) as donor cDNA. Binding of hSIRPα.50A to hSIRPαV1 point mutants was tested using CELISA. To this end, CHO-K1 cells were transiently transfected, using Lipofectamine 2000, with cDNA encoding the full length open reading frame of hSIRPαV1 and mutants thereof, and hSIRPβ1 subcloned into the pCI-neo vector. Transfected cells were seeded in culture medium (DMEM-F12 (Gibco) supplemented with 5% New Born Calf Serum (BioWest) and Pen/Strep (Gibco)) in 96-well flat-bottom tissue culture plates and incubated at 37° C., 5% CO₂ and 95% humidity for 24 hours. Subsequently, culture medium was removed and cells were incubated for 1 hour at 37° C., 5% CO₂ and 95% humidity with purified hSIRPα antibodies (used at 10 μg/mL and dilutions thereof). Next, cells were washed with PBS-T and incubated for 1 hour at 37° C., 5% CO₂ and 95% humidity with goat-anti-mouse IgG-HRP (Southern Biotech). […] Reactions were stopped with 0.5 M H₂SO₄ and absorbances were read at 450 and 610 nm. […]
Target sequence in this assay (P78324 31-504 limits assumed, change not shown): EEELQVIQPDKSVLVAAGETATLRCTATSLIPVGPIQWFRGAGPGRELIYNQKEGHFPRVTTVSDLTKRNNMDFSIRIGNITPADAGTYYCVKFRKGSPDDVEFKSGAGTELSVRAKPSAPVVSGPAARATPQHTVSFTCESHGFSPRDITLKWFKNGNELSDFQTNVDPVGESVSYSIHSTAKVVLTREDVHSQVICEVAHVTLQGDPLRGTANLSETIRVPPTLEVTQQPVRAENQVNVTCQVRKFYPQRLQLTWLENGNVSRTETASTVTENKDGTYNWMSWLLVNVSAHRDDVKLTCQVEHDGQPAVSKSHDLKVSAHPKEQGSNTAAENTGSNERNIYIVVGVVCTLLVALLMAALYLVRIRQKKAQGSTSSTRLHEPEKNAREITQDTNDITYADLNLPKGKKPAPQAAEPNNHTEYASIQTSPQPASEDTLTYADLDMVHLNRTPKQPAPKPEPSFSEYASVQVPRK

The target of assay [2] is T2, hSIRPα expressed on primary human cells (human, UniProt P78324 31-504).
T2 construct: whole, on cells; also called hSIRPα on primary human CD14+ monocytes; on primary human granulocytes
Nature of the assay: flow cytometry, blockade of DyLight488-hCD47/Fc binding to CD14+ enriched monocytes, donor 1. On the procedure:
In addition, the ability of hSIRPα.50A to block the interaction between hSIRPα and recombinant hCD47/Fc-protein was assessed. For this purpose, CD14+ monocytes were isolated from Ficoll-purified human peripheral blood mononuclear cells (PBMCs) using RosetteSep human monocyte enrichment cocktail (Stemcell). The percentage of monocytes present after the enrichment was determined by flow cytometry on the FACSVerse (BD Biosciences) based on CD14 staining using an APC-Cy7-conjugated mouse-anti-human CD14 detection antibody (BD Biosciences). […] After this labeling procedure, cells were washed two times, resuspended in PBS/1% BSA containing 0.1 μg/mL DAPI (BioLegend), and analysed by flow cytometry on the FACSVerse (BD Biosciences). Data were processed and analysed with FlowJo V10 software (FlowJo, LLC).
To assess the blocking ability of hSIRPα.50A, CD14+ enriched monocytes cells were seeded in 96-well round bottomed tissue culture plates and incubated for 45 minutes with FcR Blocking Reagent (Miltenyi Biotec) and hSIRPα.50A antibody (200 μg/mL and dilutions thereof) in PBS/1% BSA at 4° C. […] After this labeling procedure, cells were washed two times, resuspended in PBS/1% BSA containing 0.1 μg/mL DAPI (BioLegend), and analysed by flow cytometry on the FACSVerse (BD Biosciences). Data were processed and analysed with FlowJo V10 software (FlowJo, LLC).

Assay [3] deals with T1, human SIRPα variant 1. Nature of the assay: flow cytometry, blockade of DyLight488-hCD47/Fc binding to U-937 cells. How it is done:
hCD47 blockade was assessed by flow cytometry for the full panel of humanized hSIRPα.40A antibodies. To this end, the U-937 (ATCC CRL-1593.2) monocyte cell line was used as the source of hSIRPα in the assay. U-937 cells were seeded in 96-well round bottomed tissue culture plates and incubated for 45 minutes with FcR Blocking Reagent (Miltenyi Biotec) and the parental or humanized hSIRPα.40A antibody variants (20 μg/mL and dilutions thereof) in PBS/1% BSA at 4° C. […] After this labeling procedure, cells were washed two times, resuspended in PBS/1% BSA containing 0.1 μg/mL DAPI (BioLegend), and analysed by flow cytometry on the FACSVerse (BD Biosciences). Data were processed and analysed with FlowJo V10 software (FlowJo, LLC) and plotted using GraphPad Prism 6 (GraphPad Software, Inc.).
As depicted in FIG. 18 and the following Table 21, binding of recombinant hCD47 fused to an Fc domain of human IgG1 was monitored in the presence of increasing amounts of the humanized hSIRPα.40A antibody variants. Humanized hSIRPα.40A blocked the hSIRPα/hCD47 interaction, using the flow cytometry-based method described above. […] IC50 values represent the concentration at which half of the inhibition is observed.
(Flow cytometry measures light scatter and fluorescence of single cells or particles in a stream.)

T2 sequence (P78324 31-504): as the sequence (P78324 31-504 limits assumed, change not shown) above

B1: hSIRPα.50A (antibody, V domains shown)
VH: QVQLQQSGPELVKPGASVRISCKASGFTFTNYYIHWVKQRPGQGLEWIGWIYPGNVNTKYNEKFKAKATLTADKSSTTAYMQLSSLASEDSAVYFCARPTIIATDFDVWGAGTTVTVSS
VL: DIVMTQSHKFMSTSVGDRVNITCKASQGVGTAVGWYQQKPGQSPRLLIYWASTRHTGVPDRFTGSGSGTDFSLAISNVQSEDLADYFCQQYSTYPFTFGGGTNLEIK
notes: light chain constant domain not tied; also called mouse hSIRPα.50A; hSIRPα.50A.mIgG1
Regarding B1, the concentration giving a half-maximal response (EC50) – broadly, the midpoint of the concentration-response curve – with human SIRPα variant 1 [1] stood at 0.535 nM. In assay [2], the half-maximal inhibitory concentration (IC50) – broadly, the midpoint of a concentration-inhibition curve – was determined as 4.62 nM.

B2: hSIRPα.40A (antibody, mouse IgG1, kappa, V domains shown)
VH: EVQFQQSGTVLARPGTSVKMSCKASGSTFTSYWMHWVKQGPGQGLQWIGAIYPVNNDTTYNQKFKGKAELTVVTSTSTAYMEVSSLTNEDSAVYYCTRSFYYSLDAAWFVYWGQGTLVTVSA
VL: DIQMTQSPSSLSASLGERVSLTCRASQDIGSRLNWLQQEPDGTIKRLIYATSSLDSGVPKRFSGSRSGSDYSLTISGLESEDFVDYYCLQYASSPFTFGGGTKLEINR
notes: mouse antibody, full chains without signal peptide; also called mouse hSIRPα.40A
As to B2, the half-inhibitory concentration (IC50) with human SIRPα variant 1 [3] came to 1.12 nM.

These data come from patent US20180312587A1 (ADURO BIOTECH HOLDINGS EUROPE B V, published 2018).
